Data taken from patent US10597674B2, “HPPD variants and methods of use” (BASF Agricultural Solutions Seed, US LLC, priority 2015, dated 2020).
Read-outs that look alike come from different tables or passages of the source.

Key:
[1] = tested on: E. coli cells expressing an HPPD polypeptide; assay: Brown color bioassay in liquid culture, residual brown color formation (BCF), OD440 after 96 hours; format: cell-based; conditions: for Control BCF OD440nm: brown color formation in absence of Cmpd. 1, culture supernatant after 96 hours, 5 mM HPP; for Residual BCF OD440nm [%]: brown color formation with Cmpd. 1 (1000 μM) relative to without, after 96 hours
Experimental: In an additional experiment, mutant HPPD polypeptides were analyzed using the principle of a colorimetric brown color assay (as, for example, described in U.S. Pat. No. 6,768,044). Bacterial cells expressing the HPPD polypeptides according to this invention were assayed in 96 well plate format (Nunc® 96 DeepWell™ plate, Sigma-Aldrich, St. Louis, USA) for HPPD polypeptides with improved HPPD inhibitor herbicide tolerance.
E. coli cells were grown in liquid LB medium (Carl Roth GmbH+Co. KG, Karlsruhe, Germany) containing the selection agent for the expression vector pSE420(RI)NX (WO2014/043435) and 5 mM para-hydroxyphenylpyruvate (HPP; Sigma-Aldrich, St. Louis, USA), in the presence of absence of the HPPD inhibitor herbicide e.g. Cmpd. 1 (1000 μM). An overnight culture of E. coli culture expressing one of the respective HPPD polypeptides according to this invention were adjusted to an OD600 of 0.3-0.5 in a final volume of 500 μL and incubated at 30 degree Celsius. Residual brown color formation was determined by measuring the brown color formation (BCF) in the presence and absence of Cmpd. […] Therefore, after 96 hours the culture was centrifuged and the supernatant of the culture was used to measure the optical density of the soluble brown pigment formation at 440 nm (OD440 nm).

[2] = tested on: HPPD polypeptides (wild-type SEQ ID NO:1 and mutants)
Experimental: For the generation of crude HPPD polypeptide extract in micro titer plates (MTP) for the determination of residual activity in inhibition assays, cells were grown in 40 or 150 μl LB medium containing 1% Glucose (Merck, Darmstadt, Germany) and 100 μg/ml ampicillin in a standard 96 well plate (Thermo Fisher Scientific, Waltham, USA) incubated for about 18 h in a humidity incubator at 37° C.
30 μl of this starter culture were added to 600 μl LB medium containing 100 μg/ml ampicillin and 150 mM Hepes (Merck, Darmstadt, Germany) as inoculum for the expression culture in 96 well plates (2 ml deep wells; HJ Bioanalytik, Erkelenz, Germany) The plates were sealed by an aluminium foil, and cells were incubated for 5 h at 37° C. on a plate shaker at 750 rpm. The expression was induced by addition of IPTG in a final concentration of 1 mM followed by further sealed incubation for about 18 h at 30° C. on a plate shaker at 750 rpm.
Cells were harvested by centrifugation at 4° C., 2500 g for 15 min discarding the supernatant. Cell pellets were stored at −80° C. and lysed in 250 μl 1× BugBuster® (Merck, Darmstadt, Germany) in 140 mM Tris (pH 7.8), with 1:25000 diluted BNase® (Qiagen, Hilden, Germany) by incubation of the resuspended cells for 30 min at 4° C. and 1000 rpm. Lysates were clarified by centrifugation for 15 min at 4° C., 2500 g, and 150 μl supernatant were transferred in standard 96 well plate (Thermo Fisher Scientific, Waltham, USA) for subsequent testing in quadruplets.
The activity of HPPD polypeptides was determined in absence or presence of HPPD inhibitors using the coupled HPPD activity assay (FIG. 1).
For the determination of the residual activity, the apparent kinetic constant (kapp) of the determined substrate conversion was measured as kinetic changes in absorbance at 320 nm in a coupled assay, in that homogentisate (HGA) formed by HPPD from HPP is directly converted into the well absorbing molecule maleylacetoacetate (MAA) by a second enzyme homogentisate dioxygenase (HGD), applied in excess uniformly in all assays (see FIG. 1). The measurements were performed in 384 micro titer plates (Greiner Bio-One GmbH, Frickenhausen, Germany) by plate readers (Tecan infinite M1000 or M1000PRO, Tecan, Männedorf, Switzerland). The kcat/kM ratio of an enzymatic activity is proportional to the apparent kinetic constant kapp and is proportional to kcat/kM*[E] ([E]=enzyme concentration). […] As both kapp measurements in the presence and absence of inhibitor were performed by use of the identical enzyme sample, crude or purified, and thereby at the same enzyme concentration, the enzyme concentration eliminates from the calculation of residual activity and the ratio of both kapp directly indicates the change of kM due to the inhibition.

[3] = in the presence of Cmpd. 1, 15 μM inhibitor, high substrate concentration, kapp normalized to kapp without inhibitor
[4] = in the presence of Cmpd. 1, 15 μM inhibitor, high substrate concentration, total change in signal normalized to no inhibitor
[5] = in the presence of Cmpd. 2, 15 μM inhibitor, high substrate concentration, kapp normalized to kapp without inhibitor
[6] = in the presence of Cmpd. 2, 15 μM inhibitor, high substrate concentration, total change in signal normalized to no inhibitor
[7] = in the presence of diketonitrile (DKN), 60 μM inhibitor, high substrate concentration, kapp normalized to kapp without inhibitor
[8] = in the presence of diketonitrile (DKN), 60 μM inhibitor, high substrate concentration, total change in signal normalized to no inhibitor
[9] = in the presence of mesotrione (MST), 60 μM inhibitor, high substrate concentration, kapp normalized to kapp without inhibitor
[10] = in the presence of mesotrione (MST), 60 μM inhibitor, high substrate concentration, total change in signal normalized to no inhibitor

| Molecule | Control BCF OD440nm [1] | Residual BCF OD440nm [%] [1] [%] | Residual activity [2, 3] [%] | Residual turnover [2, 4] [%] | Residual activity [2, 5] [%] | Residual turnover [2, 6] | Residual activity [2, 7] | Residual turnover [2, 8] | Residual activity [2, 9] [%] | Residual turnover [2, 10] [%] | Residual activity ([2]; kapp in presence of 50 μM Cmpd. 1, normalised to kapp without inhibitor, low substrate concentration) [%] | Residual turnover ([2]; total change in signal in presence of 50 μM Cmpd. 1, normalised to that without inhibitor, low substrate concentration) [%] |
| --- | --- | --- | --- | --- | --- | --- | --- | --- | --- | --- | --- | --- |
| Cc1nnc(NC(=O)c2ccc(C(F)(F)F)c(S(C)(=O)=O)c2C)o1 [Cmpd. 2, 2-methyl-N-(5-methyl-1,3,4-oxadiazol-2-yl)-3-(methylsulfonyl)-4-(trifluoromethyl)benzamide, reference compound] | 2.68 | 18 | 39 | 50 | 51 | 72% | 86% | 93% | 71 | 85 | – | – |
| 14 (protein, mutant HPPD polypeptide) MADLYENPMGLMGFEFIEFASPTPGTLEPIFEIMGFTKVATHRSKNVHLYRQGEINLILNNEPNSIASYFAAEHGPSVCGMAFRVKDSQKAYNRALELGAQPIHIDTGPMELNLPAIKGIGGAPLYLIDRFGEGSSIYDIDFVYLEGVERNPVGAGLKVIDHLTHNVYRGRMVYWANFYEKLFNFREARYFDIKGEYTGLTSKAMSAPDGMIRIPLNEESSKGAGQIEEFLMQFNGEGIQHVAFLTDDLVKTWDALKKIGMRFMTAPPDTYYEMLEGRLPDHGEPVDQLQARGILLDGSSVEGDKRLLLQIFSETLMGPVFFEFIQRKGHDGFGPDSFKVLFESVERDQVRRGVLTAD | 1.42 | 63 | 44 | 60 | 82 | 92% | 91% | n.i | 70 | 89 | – | – |
| 19 (protein, mutant HPPD polypeptide) MADLYENPMGLMGFEFIEFASPTPGTLEPIFEIMGFTKVATHRSKNVHLYRQGEINLILNNEPNSIASYFAAEHGPSVCGMAFRVKDSQKAYNRALELGAQPIHIDTGPMELNLPAIKGIGGAPLYLIDRFGEGSSIYDIDFVYLEGVERNPVGAGLKVIDHLTHNVYRGRMVYWANFYEKLFNFREARYFDIKGEYTGLTSKAMSAPDGMIRIPLNEESSKGAGQIEEFLMQFNGEGIQHVAFLTDDLVKTWDALKKIGMRFRTAPGDEYYEMLEGRLPDHGEPVDQLQARGILLDGSSVEGDKRLLLQIFSETLMGPVFFEFIQRKGHDGFGPDSFKVLFESVERDQVRRGVLTAD | 1.65 | 60 | 68 | 79 | 92 | 93% | n.i. (no inhibition was observed under the given conditions) | n.i | 51 | 78 | 67 | 88 |
| 21 (protein, mutant HPPD polypeptide) MADLYENPMGLMGFEFIEFASPTPGTLEPIFEIMGFTKVATHRSKNVHLYRQGEINLILNNEPNSIASYFAAEHGPSVCGMAFRVKDSQKAYNRALELGAQPIHIDTGPMELNLPAIKGIGGAPLYLIDRFGEGSSIYDIDFVYLEGVERNPVGAGLKVIDHLTHNVYRGRMVYWANFYEKLFNFREARYFDIKGEYTGLTSKAMSAPDGMIRIPLNEESSKGAGQIEEFLMQFNGEGIQHVAFLTDDLVKTWDALKKIGMRFMTAPPDTYYEMLEGRLPDHGEPVDQLQARGILLDGSSVEGDKRLLLQIFSETLMGPVFFEFIQRKGDDGFGPHSFKALFESIERDQVRRGVLTAD | 0.99 | 65 | 18 | 30 | 73 | 84% | 81% | n.i | 62 | 89 | – | – |
| 22 (protein, mutant HPPD polypeptide) MADLYENPMGLMGFEFIEFASPTPGTLEPIFEIMGFTKVATHRSKNVHLYRQGEINLILNNEPNSIASYFAAEHGPSVCGMAFRVKDSQKAYNRALELGAQPIHIDTGPMELNLPAIKGIGGAPLYLIDRFGEGSSIYDIDFVYLEGVERNPVGAGLKVIDHLTHNVYRGRMVYWANFYEKLFNFREARYFDIKGEYTGLTSKAMSAPDGMIRIPLNEESSKGAGQIEEFLMQFNGEGIQHVAFLTDDLVKTWDALKKIGMRFMTAPPDTYYEMLEGRLPDHGEPVDQLQARGILLDGSSVEGDKRLLLQIFSETLMGPVFFEFIQRKGDDGFGPHSFKVLFESIERDQVRRGVLTAD | 1.67 | 58 | 26 | 53 | 90 | n.i. | n.i | n.i. | 77 | 99 | – | – |
| 24 (protein, mutant HPPD polypeptide) MADLYENPMGLMGFEFIEFASPTPGTLEPIFEIMGFTKVATHRSKNVHLYRQGEINLILNNEPNSIASYFAAEHGPSVCGMAFRVKDSQKAYNRALELGAQPIHIDTGPMELNLPAIKGIGGAPLYLIDRFGEGSSIYDIDFVYLEGVERNPVGAGLKVIDHLTHNVYRGRMVYWANFYEKLFNFREARYFDIKGEYTGLTSKAMSAPDGMIRIPLNEESSKGAGQIEEFLMQFNGEGIQHVAFLTDDLVKTWDALKKIGMRFMTAPPDTYYEMLEGRLPDHGEPVDQLQARGILLDGSSVEGDKRLLLQIFSETLMGPVFFEFIQRKGDDGFGPHSFKVLFESVERDQVRRGVLTAD | 1.56 | 48 | 28 | 57 | 90 | n.i. | 93% | n.i. | 51 | 68 | – | – |
| 107 (protein, mutant HPPD polypeptide) MADLYENPMGLMGFEFIEFASPTPGTLEPIFEIMGFTKVATHRSKNVHLYRQGEINLILNNEPNSIASYFAAEHGPSVCGMAFRVKDSQKAYNRALELGAQPIHIDTGPMELNLPAIKGIGGAPLYLIDRFGEGSSIYDIDFVYLEGVERNPVGAGLKVIDHLTHNVYRGRMVYWANFYEKLFNFREARYFDIKGEYTGLTSKAMSAPDGMIKIPLNEESSKGAGQIEEFLMQFNGEGIQHVAFLTDDLVKTWDALKKIGMRFMTAPGDEYYEMLEGRLPDHGEPVDQLQARGILLDGSSVEGDKRLLLQIFSETLMGPVFFEFIQRKGDDGFGPHSVKRLFESVERDQVRRGVLTAD | 1.38 | 84 | – | – | – | – | – | – | – | – | – | – |
